The values below come from article PMC12256852, “Reversible tuning of membrane sterol levels by cyclodextrin in a dialysis setting” (Biophysical Journal, 2025).

This data set concerns the molecule itself. The data set can be described thus: FRET or BRET; same proteoliposomes after cholesterol delivery by dialysis against cholesterol-loaded mβCD (up to 24 h); protein-to-lipid ratio 1:16,000; 30°C; relative FRET efficiency. A general note: In BRET a luciferase serves as donor, and the signal depends on an acceptor being close.

B1: MBP-Ire1^(P501-K570, C552S) with a C-terminal cysteine (domain or fragment, Saccharomyces cerevisiae)
chain: PEDLEAYRKKIHEQISRELDEKNQNSLLLKFGSLVYRIIETGVFLLLFLIFSAILQRFKILPPLYVLLSKC
modifications: C-terminal cysteine modified by maleimide chemistry with ATTO514 (FRET donor), ATTO594 (FRET acceptor) or NEM (unlabeled)
notes: Ire1 from Saccharomyces cerevisiae, residues P501 to K570: the entire transmembrane region with the amphipathic helix and the short transmembrane helix; endogenous cysteine 552 replaced by serine; single cysteine introduced at the C-terminal end of the construct for labeling; Donor-labeled (ATTO514) and acceptor-labeled (ATTO594) copies of the same construct were co-reconstituted; also called …
With B1, the binding result was “binds”.
